This is an account of results in patent US20220396627A1 (VERSEAU THERAPEUTICS, published 2022).

Test [1] concerns the target T1, Recombinant human Siglec-9-His (human, UniProt Q9Y336 18-348).
T1 construct: The entry begins at QTSK... like the Q18-G348 extracellular domain of the Fc fusion and ends in GSG and a His tag
Briefly: BLI (Octet Red384), chimeric antibody on AHC sensor, His-tagged analyte 100-1.56 nM, 1:1 global fit. Here is the method:
(§1) The binding affinity of chimeric antibodies was determined by biolayer interferometry (BLI), using a ForteBio Octet Red384 system. All samples were prepared in black 96-well flat bottom plates (Greiner, Cat. #655209) diluted in kinetics buffer (lx DPBS (Gibco, Cat. #LS14190250) containing 0.1% bovine serum albumin, 0.05% sodium azide, and 0.02% Tween®20). Anti-SIGLEC-9 antibodies (ligand) were diluted to a final concentration of 10 ug/mL and captured on anti-human IgG Fc capture (AHC) biosensors (ForteBio, Cat. #18-5060). […] Biosensors were rehydrated prior to the assay in kinetics buffer for 10 minutes and then equilibrated in kinetics buffer for 60 seconds. Antibody was then immobilized for 300 seconds followed by a 120 second baseline wash in fresh kinetics buffer, 300 second analyte association, and 300 second dissociation in the same buffer wells as the baseline wash step. All assay steps occurred at 30° C. with an acquisition rate of 5.0 Hz
(§2) Processing parameters included double reference subtraction, with human IgG4 used as an isotype control for reference sensor subtraction and immobilized ligand in kinetics buffer with no analyte used for reference sample subtraction. Y-axis data was aligned to the average baseline step for the last 5 seconds and all steps were inter-step corrected to the start of the dissociation step. High frequency noise was removed using Savitzky-Golay filtering and final fitting was a 1:1 global binding model to both association and dissociation.
(BLI is a label-free optical method that tracks binding on a fibre tip over time.)

The target in test [2] is T2, Recombinant human Siglec-7-His (human, UniProt Q9Y286 19-353, limits assumed). As to the kind of experiment: BLI (Octet Red384), chimeric antibody on AHC sensor, His-tagged analyte. Here is the method:
as §1, §2

Test [3] has as its target T3, Recombinant cyno Siglec-9-His (cynomolgus macaque).
T3 construct: also called Cynomolgus Monkey SIGLEC9-HIS
The test is described as above. Here is the method:
as §1, §2

Test [4] deals with Human Siglec-9-Fc (recombinant human Siglec-9 extracellular domain Q18-G348 fused to human IgG1 Fc) (human). Briefly: ELISA: plate coated with 1 ug/mL human Siglec-9-Fc, antibody at 100 nM, HRP anti-mouse Fc secondary, RLU. The procedure:
ELISA plates (384-well) were coated with 1 ug/mL indicated SIGLEC protein at room temperature. The plates were washed with PBS with 0.1% Tween®20, pH 7.4 and blocked with TBS containing 3% BSA. The plates were washed and incubated with anti-SIGLEC9 antibody diluted to 100 nM. Plates were washed and incubated with HRP-coupled anti-mouse Fc secondary antibody. Plates underwent a final wash and were incubated with HRP substrate. Readout was performed using a POLARstar Omega Microplate Reader (BMG LAPTECH).

Test [5] addresses T2, Recombinant human Siglec-7-His. Briefly: BLI (Octet Red384), chimeric antibody on AHC sensor, His-tagged analyte 100-1.56 nM, 1:1 global fit. Here is the method:
as §1, §2

In test [6] the target is T3, Recombinant cyno Siglec-9-His. Described as above. The procedure:
as §1, §2

T3 sequence (chain, as listed by the source limits assumed): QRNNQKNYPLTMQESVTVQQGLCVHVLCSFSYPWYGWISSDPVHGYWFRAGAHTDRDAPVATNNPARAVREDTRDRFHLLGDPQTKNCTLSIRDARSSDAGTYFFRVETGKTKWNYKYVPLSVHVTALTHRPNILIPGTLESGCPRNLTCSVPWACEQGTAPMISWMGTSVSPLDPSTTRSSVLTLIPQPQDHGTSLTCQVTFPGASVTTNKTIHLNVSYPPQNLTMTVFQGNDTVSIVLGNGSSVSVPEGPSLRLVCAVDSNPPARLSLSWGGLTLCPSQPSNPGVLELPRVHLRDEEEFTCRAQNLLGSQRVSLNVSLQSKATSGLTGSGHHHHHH
T1 sequence (Q9Y336 other isoform, or with tags, fused parts or gaps limits assumed): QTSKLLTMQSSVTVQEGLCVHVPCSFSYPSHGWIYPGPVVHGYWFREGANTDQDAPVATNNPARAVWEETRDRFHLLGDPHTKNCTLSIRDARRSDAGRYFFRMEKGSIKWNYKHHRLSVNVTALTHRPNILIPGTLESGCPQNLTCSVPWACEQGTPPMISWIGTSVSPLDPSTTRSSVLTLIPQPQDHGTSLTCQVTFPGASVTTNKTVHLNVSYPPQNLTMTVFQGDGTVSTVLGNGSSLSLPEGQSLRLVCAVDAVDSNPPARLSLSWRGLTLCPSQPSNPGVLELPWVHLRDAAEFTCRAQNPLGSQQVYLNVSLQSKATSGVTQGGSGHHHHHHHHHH
T2 sequence (Q9Y286 19-353 limits assumed): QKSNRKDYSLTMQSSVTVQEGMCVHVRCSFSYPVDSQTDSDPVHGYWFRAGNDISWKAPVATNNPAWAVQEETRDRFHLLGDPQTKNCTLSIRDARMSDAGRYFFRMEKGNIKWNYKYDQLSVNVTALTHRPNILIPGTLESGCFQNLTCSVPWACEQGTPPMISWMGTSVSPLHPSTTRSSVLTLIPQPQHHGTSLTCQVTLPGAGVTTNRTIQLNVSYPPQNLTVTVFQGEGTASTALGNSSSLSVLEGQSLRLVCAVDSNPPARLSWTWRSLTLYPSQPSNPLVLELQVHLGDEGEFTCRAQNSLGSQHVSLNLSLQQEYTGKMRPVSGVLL
Chain of Human Siglec-9-Fc (recombinant human Siglec-9 extracellular domain Q18-G348 fused to human IgG1 Fc) (human) (chain, as listed by the source limits assumed): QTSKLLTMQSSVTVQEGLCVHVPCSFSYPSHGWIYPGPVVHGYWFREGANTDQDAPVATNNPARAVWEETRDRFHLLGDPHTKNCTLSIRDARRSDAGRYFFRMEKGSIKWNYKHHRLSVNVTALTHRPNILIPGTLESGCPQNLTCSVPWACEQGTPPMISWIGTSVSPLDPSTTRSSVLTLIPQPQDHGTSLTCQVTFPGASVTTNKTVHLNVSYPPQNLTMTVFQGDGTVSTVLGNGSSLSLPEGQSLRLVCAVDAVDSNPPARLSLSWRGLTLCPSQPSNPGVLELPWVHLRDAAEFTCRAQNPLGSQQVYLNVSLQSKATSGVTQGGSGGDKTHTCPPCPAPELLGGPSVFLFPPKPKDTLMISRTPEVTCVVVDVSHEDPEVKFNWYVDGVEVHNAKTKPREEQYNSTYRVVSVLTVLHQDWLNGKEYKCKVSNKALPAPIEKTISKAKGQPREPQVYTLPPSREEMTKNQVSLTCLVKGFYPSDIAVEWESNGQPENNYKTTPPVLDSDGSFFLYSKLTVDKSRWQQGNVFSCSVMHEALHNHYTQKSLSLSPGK

B1: 3L02 mouse/human chimeric antibody (human IgG4 S228P, kappa) (antibody, V domains shown)
VH: DVQLQESGPGMVKPSQSLSLTCTVTGYSITSGYDWHWIRHFPGNKLEWMGYISYSAGTNYNPSLKSRISITHDTSKNHFFLKLNSVTTEDTATYYCAREGLTAYWYFDVWGTGTTVTVSS
VL: DIVMTQSQKFMSTSVGDRVSVTCKASQTVGTNVAWYQQKPGQSPKPLIYSASYRYSGVPDRFTGSGSGTDFTLTISNVQSEDLAEYFCQQYDSFPLTFGSGTKLEIKR
One may read the Kd as the equilibrium constant for the complex coming apart. As for B1, the dissociation constant (Kd) in test [1] was determined as 4.4 pM. For the same molecule, the binding result in test [2] and in test [3] was “no binding (tested: analyte titrated from 100 nM to 1.56 nM)” in each case.

B2: 2E23 (antibody, V domains shown)
VH: QVQLQQPGAELVKPGASVKLSCKASGYTFTSYWMHWVKQRPGQGLEWIGEINPSNGGTNYNEKFKSKATLTVDKSSSTAYMQLSSLTSEDSAVYYCTIYYGDYSYPIDYWGQGTSVTVSS
VL: QIVLTQSPAIMSASPGEKVTLTCSASSSVSSSYLYWYQQKPGSSPKLWIYSTSNLASGVPTRFSGSGSGTSYCLTISSMETEDAASYFCHQYSSYPFTFGSGTKLEIK
Consider B2, for which the binding result in test [4] is given as “binds”.

B3: 13J19 mouse/human chimeric antibody (human IgG4 S228P, kappa) (antibody, V domains shown)
VH: QVQLKESGPGLVAPSQSLSITCTVSGFSLTSYGVSWVRQPPGKGLEWLGVVWRDGTTNYHSALISRLSISKDNSKSQVFLKLNSLQTDDTATYYCARPYYGFFDYWGQGTTLTVSS
VL: SIVMTQTPKFLLVSAGDRVTVTCKASQSVSNAVAWYQQKPGQSPKLLIYYASNRYTGVPDRFTGSGYGTDFTFTISTVQAEDLAVYFCQQNYNSPYTFGGGTKLEIKR
notes: 13J19 is deposited as ATCC PTA-125945
For the molecule B3, the Kd in test [1] amounted to 2.1 pM; in test [5], 20000 pM; in test [6], 6.8 pM.

B4: 13H10 mouse/human chimeric antibody (human IgG4 S228P, kappa) (antibody, V domains shown)
VH: QVQLQQPGAELVKPGASVKLSCKASGYTFTSYWMYWVKQRPGQGLDLIGEINPSNGGTNYNEKFKSKATLTVDKSSGTAYMQLSSLTSEDSAVYYCAIWKDYYGISYEDWYFDVWGTGTTVTVSS
VL: DILLTQSPAILSVSPGERVSFSCRASQSIGTSIHWYQQRTNGSPRLLIKYASESISGIPSRFSGSGSGTDFTLSINSVESEDIADYYCQQSNSWPLTFGAGTKLELKR
notes: 13H10 is deposited as ATCC PTA-125944
Turning to B4, the dissociation constant Kd in test [1] is 2.6 pM. Further, the binding result in test [2] and in test [3] was “no binding (tested: analyte titrated from 100 nM to 1.56 nM)” throughout.
